Test results reported in patent US8173771B2, “Humanin receptor or humanin-like polypeptide receptor” (Keio Univeristy, priority 2005, dated 2012).

Target: T1, G-CSFR/gp130 chimera proteins (Homo sapiens, UniProt P40189+Q99062)
T1 construct: the extracellular domain of the human G-CSF receptor fused to the full transmembrane domain; expressed in transfected cells; host or cells: F11 cells
T1 sequence (Q99062+P40189 with tags, fused parts or gaps): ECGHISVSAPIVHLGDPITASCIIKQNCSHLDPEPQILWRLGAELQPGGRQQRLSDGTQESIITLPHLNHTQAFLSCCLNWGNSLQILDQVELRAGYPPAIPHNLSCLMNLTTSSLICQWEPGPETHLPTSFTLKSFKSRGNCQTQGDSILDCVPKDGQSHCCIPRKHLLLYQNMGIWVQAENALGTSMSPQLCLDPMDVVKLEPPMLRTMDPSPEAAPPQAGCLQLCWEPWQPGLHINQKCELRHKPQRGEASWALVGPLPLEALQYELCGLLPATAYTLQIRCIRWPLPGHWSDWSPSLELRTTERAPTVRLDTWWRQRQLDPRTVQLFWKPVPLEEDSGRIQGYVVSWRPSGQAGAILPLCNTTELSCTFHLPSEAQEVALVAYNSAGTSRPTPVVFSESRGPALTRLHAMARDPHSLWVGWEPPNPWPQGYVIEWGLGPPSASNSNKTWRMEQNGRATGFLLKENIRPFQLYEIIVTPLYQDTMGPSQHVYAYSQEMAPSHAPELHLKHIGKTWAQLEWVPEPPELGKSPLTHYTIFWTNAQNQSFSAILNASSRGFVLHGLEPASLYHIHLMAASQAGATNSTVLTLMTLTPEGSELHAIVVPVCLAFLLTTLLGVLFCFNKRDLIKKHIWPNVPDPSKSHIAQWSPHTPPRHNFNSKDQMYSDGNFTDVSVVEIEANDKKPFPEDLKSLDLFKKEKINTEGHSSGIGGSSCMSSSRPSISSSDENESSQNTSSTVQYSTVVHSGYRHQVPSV
Experiment: G-CSF stimulation of G-CSFR/gp130 chimera proteins in F11 cells, cell mortality by Trypan blue exclusion
Assay type: cell-based
Conditions: 100 nM; G-133 expressed
Procedure: B) F11 cells were transfected with 0.5 μg of the pcDNA3 vector or pcDNA3-APP in association with 0.5 μg of the pEFBos vector or the pEFBos vectors encoding the extracellular domain of the human G-CSF receptor fused to the full transmembrane domain and a C-terminally truncated intracytoplasmic domain of gp130 (named “G-CSFR/gp130”). G-CSFR/gp130 (277) contains the full intracytoplasmic domain of gp130 corresponding to amino acids 1-277, while G-CSFR/gp130 (25), (68), and (133) contain the intracytoplasmic domains corresponding to amino acids 1-25, 1-68, and 1-133, respectively. At 24 hr after transfection, the cells were added with indicated amounts of human G-CSF. Cell mortality was determined by Trypan blue exclusion assay at 72 hr after transfection. The results of immunoblot analysis of the expression of […] are shown in photos.
C) Instead of the pcDNA3-V6421-APP vector, pcDNA3-K595 N/M596L-APP (NL-APP), M146L-PS1 and N141-I-PS2 vectors were used to do the same experiments as in FIG. 2A. The results of immunoblot analysis of the expression of NL-APP, M146L-PS1 and N141-I-PS2 are shown in photos.
D) F11 cells were transfected with 0.5 μg of the pEFBos vector or pEF-G85R-SOD1 in association with 0.5 μg of the pEFBos vector or each pEFBos vector encoding G-CSFR/gp130 (277) or G-CSFR/gp130 (25). At 24 hr after transfection, the cells were added with indicated amounts of human G-CSF. Cell mortality was determined by Trypan blue exclusion assay at 72 hr after transfection. The results of the expression of G85R-SOD1, which were confirmed by the immunoblot analysis, are shown in photos.
Neurohybrid F11 cells and pcDNA3 vectors encoding V642I-APP, K595N/M596L-APP (NL-APP), M146L-PS1, and N141I-PS2 cDNA were prepared as already described (Hashimoto et al, 2000, 2001a, 2003). pCAG-human gp130 and pCAG-human gp130 ED (the extracellular domain of human gp130) were prepared as described (Kumanogoh et al., 1997). pcDNA3 vectors encoding the extracellular domain of the G-CSF receptor fused to the full-length transmembrane domain and various portions of the intracellular domains of human gp130, were prepared as described (Fukada et al, 1996). The intracellular domain of gp130 was C-terminally truncated. A chimera protein named G-277 contained a 277 amino acid-long full intracellular domain of gp130 (SEQ ID NO:35), while G-195, G-133, G-68, and G-25 contained the amino acids 1-195 (SEQ ID NO:36), 1-133 (SEQ ID NO:37), 1-68 (SEQ ID NO:38), and 1-25 (SEQ ID NO:39) intracellular portions, respectively. C-terminally myc-tagged human WSX-1 and myc-tagged mouse CREME9 cDNAs were amplified from human and mouse embryo cDNA (BioChain) by PCR using sets of sense primers and antisense primers: 5′-[…]-3′ (SEQ ID NO:3) and 5′-[…]-3′ (SEQ ID NO:4) for human WSX-1; 5′-[…]-3′ (SEQ ID NO:5); and 5′-[…]-3′ (SEQ ID NO:6) for mouse CREME9. Plasmids encoding C-terminally V5-tagged human CNTF-R (V %-CNTF-R) and rat IL-6R (pUCM18-rat IL-6R) were purchased from Invitrogen and American Culture Collection, respectively. A pEFBos vector comprising familial ALS (FALS) gene G85R-SOD1 was kindly provided by Dr. Shoji Tsuji. Cosmid of human wild […] was constructed by inserting a full-length gp130 into a SwaI site of pAxCAwt (TaKaRa).
The transfection procedures were as described (Hashimoto et al, 2000, 2001a, 2003). F11 cells, seeded at 7×10^4/well in 6-well dishes, were transfected with indicated vectors. Transfection efficiency in these protocols has been determined to be invariably around 70%. At 72 hrs after transfection, the Trypan blue exclusion assay and LDH assay were performed as a cell-death assay and the WST-8 assay was performed as cell-viability assays (Hashimoto et al, 2000, 2001a b, 2003). HN was added to the culture medium usually at 5 hrs after transfection, but in some cases at 24 hrs after transfection.

B1: G-CSF: human G-CSF, ligand stimulating G-CSFR/gp130 chimera proteins (protein, UniProt P09919 31-207, looked up)
Granulocyte …: TPLGPASSLPQSFLLKCLEQVRKIQGDGAALQEKLVSECATYKLCHPEELVLLGHSLGIPWAPLSSCPSQALQLAGCLSQLHSGLFLYQGLLQALEGISPELGPTLDTLQLDVADFATTIWQQMEELGMAPALQPTQGAMPAFASAFQRRAGGVLVASHLQSFLEVSYRVLRHLAQP
  prevention of neuronal cell death induced by V642I-APP: partially prevented
